Results reported in patent US20110293610A1 (published 2011).
Numbering of substitutions follows the chain as printed.

B1: I079F08 (scFv)
scFv: QMQLVQSGGGVVQPGRSLRLSCAASGFTFSSYGMHWVRQAPGKGLEWVAVISYDGSIKYYADSVKGRFTISRDNSKNTLYLQMNSLRAEDTAVYYCARYYYHSSGSDAFDIWGQGTLVTVPSGGGGSGGGGSGGGGSQSVLTQPPSASGTPGQRVTISCSGSSSNIGSNTVNWYQRLPGAAPQLLIYNNNQRPSGVPDRFSGSKSGTSASLAISGLQSEDEADYYCAAWDDSLNGWVFGGGTKLTVLG
B2: I079B12 (scFv)
scFv: EVQLVQSRGGVVQPGRSLRLSCAASGLTFSSYGMHWVRQAPGKGLEWVAVISYDGRNKYYADSVKGRFTTSRDNSKNTLYLQMNSLRAEDTAVYYCAKWTSSGAFDIWGRGTLVTVSSGGGGSGGGGSGGGGSDIQMTQSPSTLSASIGDRVTITCRASEGIYHWLAWYQQKPGKAPKLLIYKASSLASGAPSRFSGSGSGTDFTLTISSLQPDDFATYYCHQYSNYPLTFGGGTKLEIKR
B3: I082D07 (scFv)
scFv: B2 scFv with H222Q
B4: I080E05 (scFv)
scFv: EVQLVQSGAAVKKPGASVKVSCKASGYTFTTYYIHWVRQAPGQGLEWMGIINPVNGNTIYAQKFQGRVTMTRDTSTGTVNMELSSLRSEDTAVFYCVREGGGDAYDVAPYYFDYWGQGTLVTVSSGGGGSGGGGSGGGGSAQAVLTQPSSVSGAPGQRVTISCTGSSSNIGDGYDVHWYQQLPGTAPKLLIYGNSHRPSGVPDRFSGSKSDTSASLAITGLQVEDEADYFCHSYDSSVSGWIFGGGTKLTVLG
B5: I084A01 (scFv)
scFv: QVQLVQSGGGLVQPGGSLRLSCAASGFTFSSYEMNWVRQAPGKGLEWVSYISSSGSTTYYADSVKGRFTISRDNAKNSLYLQMNSLRAEDTAVYYCARDTTDYWGQGTMVTVSSGGGGSGGGGSGGGGSQSVLTQPPSASGTPGQRVTISCSGSSSNIGSNTVNWYQRLPGAAPQLLIYNNDQRPSGIPDRFSGSKSGTSGSLVISGLQSEDEADYYCASWDDSLNGRVFGGGTKLTVLG
B6: I079C01 (scFv)
scFv: EVQLVESGGGLVQPGGSLRLSCAASGFTFSDYGMHWVRQRPGKGLEWIAFIGSDGSNKYYGDTVKGRFTISRDNAKNSLYLQMNSLRAEGTAVYYCARDWDMDVWGQGTMVTVSSGGGGSGGGGSGGGGSHVILTQPRSVSGSPGQSVTISCTGTSSDVGGYHYVSWYQQHPGKAPRLMIYEVTKRPSGVSNRFSGSKSGNTASLTISGVQAEDEADYYCSSYTSASTVIFGGGTKLTVLG
B7: I080G09 (scFv)
scFv: QVQLVQSGAEVKKPGASVRVSCKSSGYTFTNYGISWVRQAPGQGLEWMGWISNNNGKTYYAQKVQGRVTMTTDTSTSTDYMELRGLRSDDTAIYYCARDNGGGTIGFDYWGQGTLVTVSSGGGGSGGGGSGGGGSAQSVLTQPPSVSGAPGQRVTISCTGSSSNIGADYDVHWYQLLPGTAPKLLIYGNTNRPSGVPDRFSGSKSGTSASLTIAGLQAEDEADYYCQSYDSSLSGSVVFGGGTKLTVLG
B8: I082A05 (scFv)
scFv: QVQLQQSGGGVVQPGRSLRLSCAASGFTYSSYAMHWVRQAPGKGLEWVAVISYDGSIKYYADSVKGRFTISRDNSKNTLYLQMNSLRAEDTAVYYCARDLDFDYWGKGTLVTVSSGGGGSGGGGSGGGGSQSVLTQPPSVSAAPGQKVTISCSGSTSNIGNNYVSWYQQHPGKAPKFMIYDVSKRPSGVSNRFSGSKSGNTASLTISGVQAEDEADYYCSSYTSASTVIFGGGTKLTVLG
B9: I082G01 (scFv)
scFv: QMQLVQSGAEVKKPGASVKVSCKASGYTFTSYYMHWVRQAPGQGLEWMGLVHPNDGSVNYAQKFKGRVTMTRDTSTSTVYMELSSLRSDDTAVYYCARDRGSGWPNWYFDLWGQGTLVTVSSGGGGSGGGGSGGGGSDIQMTQSPSTLSASIGDRVTITCRASEGIYHWLAWYQQKPGKAPKLLIYKASSLASGAPSRFSGSGSGTDFTLTISSLQPDDFATYYCQQYSNYPLTFGGGTKLEIKH
B10: I084B02 (scFv)
scFv: QVQLVQSGGGLVQPGGSLRLSCAASGFTFSSYEMNWVRQAPGKGLEWVSYISSSGSTTYYADSVKGRFTISRDNAKNSLYLQMNSLRAEDTAVYYCARDTTDYWGQGTLVTVSSGGGGSGGGGSGGGGSDIVMTQSPSTLSASVGDRVTITCRASQGISSWLAWYQQKPGRAPKVLIYKASTLESGVPSRFSGSGSGTDFTLTISSLQPEDFATYYCQQSYSTPWTFGQGTKLEIKR
B11: I080D03 (scFv)
scFv: QVQLVQSGAELKQPGTSVKVSCKASGYSFSSYGVTWVRQAPGQGLEWMGWVSGNRGNTQYAQKFQDRVRMTTDTSTSTAYMELRSLRPDDTAVYFCARVGIKAAAVDNFEYWGRGTTVTVSSGGGGSGGGGSGGGGSAQSVLTQPPSASGTPGQRVTITCSGSSSNIGDYYVNWYQQVSGTTPKLIIYRDDQRPSGVPDRFSGSKSGASASLAISGLRSEDEANYFCAAWDDSLREFAFGTGTKVTVLG
B12: I080A03 (scFv)
scFv: QVQLQQSGAELKQPGTSVKVSCKASGYSFSCYDVNWVRQAPGQGLEWMGRINPNSGNTHYAQKFQDRVTMTTDTSTSTAYMELNSLRPDDTAVYFCARVGIKAAAVDNFEYWGRGTTVTVSSGGGGSGGGGSGGGGSAQSVLTQPPSASGTPGQRVTITCSGSSSNIGDYYVNWYQQVSGTTPKLIIYRDDQRPSGVPDRFSGSKSGASASLAISGLRSEDEANYFCAAWDDSLREFAFGTGTKVTVLG
B13: I083G03 (scFv)
scFv: B11 scFv with A92D
B14: I082B08 (scFv)
scFv: QVQLVQSGAEVKKPGGSVKVSCKASAYTFTRYYMHWVRQAPGQGLEWMGIINPSGGRTSYAQKFQGRVTMTRDTSTSTVYMELSSLRSEDTAVYYCARDLGIAGTIYFDYWGKGTLVTVSSGGGGSGGGGSGGGGSQSVLTQPPSVSAAPGQKVTISCSGSTSNIGNNYVSWYQQHPGKAPKLMIYDVSKRPSGVPDRFSGSKSGNSASLDISGLQSEDEADYYCAAWDDSLSEFLFGTGTKLTVLG
B15: I080B01 (scFv)
scFv: QVQLVQSGAEVKKPGASVKVSCKASGYTFTNYYMHWVRQAPGQGLEWMGIINPRDVSTTYAQKFQGRATMTRDTSTSTVYMELNSLRSEDTAVYYCAREYSGYHYVEGGSYAMDVWGQGTMVTVSSGGGGSGGGGSGGGGSALSYVLTQPPSASGTPGQRVTITCSGSSSNIGNYYVNWYQQVSGTAPKLIIYRNNQRPSGVPDRFSGSKSGASASLAISGLRSEDEADYFCAAWDDSLREFVFGTGTKVTVLG
B16: I079B05 (scFv)
scFv: GVQLVESGGGLVKPGGSLRLSCATSGFRFSDYAMTWVRQAPGKGLEWVSSITGSGGGTHYAGSVRGRFTISRDNSKNTVYLQMNNLRPEDTAVYYCASFVLDYWGKGTLVTVSSGGGGSGGGGSGGGGSQSVLTQPASVSGSPGQSITISCTGTSSDVGGYNYVSWYQQHPGKAPKLMIYEGSKRPSGVSNRFSGSKSGNTASLTISGLQAEDEADYYCSSYTTRSTRVFGGGTKLTVLG
B17: I083B12 (scFv)
scFv: QVQLVQSGAEVKKPGASVKVSCKASEYTFYNHYMHWVRQAPGQGLEWMGFINPSGDAAWYAQKFQGRVTLTRDTSTRTVYMELSGLTSEDTAVYYCARESGAGGYYYDDYWGKGTLVTVSSGGGGSGGGGSGGGGSALSYVLTQPPSVSVAPGKTASIPCGGNNIGSKSVQWYLQKAGQAPILVVYDDSDRPSGIPERFSGSNSGNTATLTITRVEAGDEADYYCQVWDSSSDHWFFGGGTKLTVLG
B18: I079F06 (scFv)
scFv: QVQLVESGGGLVQPGGSLRLSCAASGFTFSSYWMSWVRQAPGKGLEWVANIKQDGSEKYYVDSVKGRFTISRDNAKNSLYLQMNSLRAEDTAVYYCARDNLHAAFDIWGRGTLVTVSGGGGGSGGGGSGGGGSDIQMTQSPSTLSASIGDRVTITCRASEGIYHWLAWYQQKPGKAPKLLIYKASSLASGAPSRFSGSGSGTDFTLTISSLQPDDFATYYCQQYSNYPLTFGGGTKLEIKR
B19: I084C04 (scFv)
scFv: VQLVQSGAEVKKPGASVKVSCKASGYTFTSYGISWVRQAPGQGLEWMGWINPNSGGTNYAQKFQGRVTMTRDTSISTAYMELSRLRSDDTAVYYCARNLWGLDYWGKGTMVTVSSGGGGSGGGGSGGGGSSELTQDPAVSVALGQTVRITCQGDSLRSYYASWYQQKPGQAPVLVIYGKNNRPSGIPDRFSGSSSGNTASLTITGAQAEDEADYYCNSRDSSGNHVVFGGGTKLTVLG

Molecular target: T1, HIS-tagged B Lymphocyte Stimulator (human, UniProt Q9Y275 71-285)
T1 construct: Expressed in E. coli; also called HIS-B Lymphocyte Stimulator; histidine-tagged B Lymphocyte Stimulator; not shown: histidine tag from the pQE9 vector
Assay: BIAcore, periplasmic scFv over high density HIS-BLyS surface
Description: All BIAcore analysis was performed on BIAcore 2000 machines, using the BIAcore 2000 control software and evaluated using the BIAevaluation 3.0 software. A high density His-tagged B Lymphocyte Stimulator surface (>1000 RU HIS-B Lymphocyte Stimulator coupled) was prepared in flow cell 2 by amine coupling to a CM5 chip. A new CM5 chip was inserted into the BIAcore and a sensorgram started over flow cell 2 with HBS buffer at a flow rate of 5 μl/min. The NHS and EDC solution were mixed 1:1 before injecting 30 μl over the CM5 surface. Fifty μl HIS-B Lymphocyte Stimulator (at 10 μg/ml in Sodium acetate buffer, pH4) was injected and allowed to couple to the surface. Thirty μl of ethanolamine-HCl solution was then injected to block free NHS esters. Prior to using the chip, 10 μl of 4M Guanidine hydrochloride in HBS was injected over the surface to strip the surface of non-covalently bound B Lymphocyte Stimulator. A blank surface (no HIS-B Lymphocyte Stimulator) was also prepared over flow cell 1 so that non-specific binding effects can be subtracted from the HIS-B Lymphocyte Stimulator binding curves.
The 96-well plate containing periplasmic scFvs was secured inside the BIAcore. Two ml of 4M Guanidine hydrochloride in HBS was placed in a rack inside the BIAcore for regeneration of the HIS-B Lymphocyte Stimulator surface between samples. The sensorgram was run over flow cells 1 and 2 at a flow rate of […].

T1 sequence (Q9Y275 71-285): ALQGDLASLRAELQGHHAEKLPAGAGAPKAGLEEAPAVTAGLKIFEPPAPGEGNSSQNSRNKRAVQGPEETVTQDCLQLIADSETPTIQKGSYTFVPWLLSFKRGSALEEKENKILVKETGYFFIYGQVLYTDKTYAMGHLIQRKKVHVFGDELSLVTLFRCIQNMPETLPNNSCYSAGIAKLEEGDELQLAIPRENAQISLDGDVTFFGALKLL

Binding result, binds:
B1
B2
B3
B4
B5
B6
B7
B8
B9
B10
B11
B12
B13
B14
B15
B16
B17
B18
B19
